Target: yeast two-hybrid activation domain-Tsg101 construct (full-length Tsg101) (human) (UniProt Q99816)
Experiment: cell-based or functional assay

Chain of yeast two-hybrid activation domain-Tsg101 construct (full-length Tsg101) (human) (Q99816 whole entry, the tested form may be a part): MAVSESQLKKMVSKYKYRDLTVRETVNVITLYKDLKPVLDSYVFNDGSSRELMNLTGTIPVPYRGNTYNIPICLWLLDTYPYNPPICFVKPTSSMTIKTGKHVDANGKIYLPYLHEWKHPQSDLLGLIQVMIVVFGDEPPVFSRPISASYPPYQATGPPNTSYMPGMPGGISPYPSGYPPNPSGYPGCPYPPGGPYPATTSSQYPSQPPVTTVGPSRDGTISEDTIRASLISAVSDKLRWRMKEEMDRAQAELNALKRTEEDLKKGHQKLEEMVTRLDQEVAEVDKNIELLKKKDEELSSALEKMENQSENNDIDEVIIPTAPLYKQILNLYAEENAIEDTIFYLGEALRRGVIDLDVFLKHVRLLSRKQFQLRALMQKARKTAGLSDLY

Question: Which β-galactosidase activity, two-hybrid liquid culture assay (fold over background) does the source give for “yeast two-hybrid DNA binding domain-HIV1 GAGp6 construct, wild type (from UniProt P04386 1-147; P12493 449-500)” here?
Answer: > 300
